B1: EZ-1: Thermotoga maritima acetyl xylan esterase variant C277S, untargeted perhydrolase, SEQ ID NO: 424 (protein, listed as Thermotoga maritima)
chain: MAFFDLPLEELKKYRPERYEEKDFDEFWEETLAESEKFPLDPVFERMESHLKTVEAYDVTFSGYRGQRIKGWLLVPKLEEEKLPCVVQYIGYNGGRGFPHDWLFWPSMGYICFVMDTRGQGSGWLKGDTPDYPEGPVDPQYPGFMTRGILDPRTYYYRRVFTDAVRAVEAAASFPQVDQERIVIAGGSQGGGIALAVSALSKKAKALLCDVPFLCHFRRAVQLVDTHPYAEITNFLKTHRDKEEIVFRTLSYFDGVNFAARAKIPALFSVGLMDNISPPSTVFAAYNYYAGPKEIRIYPYNNHEGGGSFQAVEQVKFLKKLFEKG
B2: EZ-7: C277S-link1-DenP308-H6, SEQ ID NO: 429 (protein)
chain: MAFFDLPLEELKKYRPERYEEKDFDEFWEETLAESEKFPLDPVFERMESHLKTVEAYDVTFSGYRGQRIKGWLLVPKLEEEKLPCVVQYIGYNGGRGFPHDWLFWPSMGYICFVMDTRGQGSGWLKGDTPDYPEGPVDPQYPGFMTRGILDPRTYYYRRVFTDAVRAVEAAASFPQVDQERIVIAGGSQGGGIALAVSALSKKAKALLCDVPFLCHFRRAVQLVDTHPYAEITNFLKTHRDKEEIVFRTLSYFDGVNFAARAKIPALFSVGLMDNISPPSTVFAAYNYYAGPKEIRIYPYNNHEGGGSFQAVEQVKFLKKLFEKGGPGSGGAGSPGSAGGPGSTKPPRTPTANTSRPHHNFGSGGGGSPHHHHHH

Tests used:
[1] = Two-step bleaching of coffee-tea stained bovine enamel (Example 16)
Description: Bovine enamel incisors were prepared as indicated in Example 1. The stained enamel blocks were embedded in a 48 well plate to protect the dentin backside from solution exposure. A solution of 10 μM of each enzyme in 10 mM phosphate buffer, pH 7.2 was prepared and 500 μL of solution was incubated with each enamel substrate for 60 min. The enzyme solution was removed and each well was rinsed three times with an additional 500 μL of buffer. The enamel blocks were placed in a fresh well for the whitening process. A solution with a final concentration of 40 mM triacetin, 100 mM H2O2 in 50 mM phosphate pH 7.2 buffer was freshly prepared and 500 μL of solution was added to each enamel block. Over the course of 1 hr the enamel blocks were removed and a color measurement was obtained and then each was returned to the solution in the well plate. The whiteness index for each sample was monitored.

[2] = Two-step bleaching of coffee-tea stained bovine enamel, repeated rounds (Example 17); parameters: scale not given here; details: for Whiteness Index Rd1: after round 1 of the 2-step process; for Whiteness Index Rd2: after round 2; for Whiteness Index Rd3: after round 3; for Whiteness Index Rd4: after round 4; for Whiteness Index Rd5: after round 5; for ΔWI: before to round 5; for Whiteness Index Before: two-step: 20 μM enzyme (or buffer) 10 min 37° C., rinsed, then 100 mM triacetin, 100 mM H2O2 10 min 37° C., before treatment
Description: Bovine enamel incisors were prepared as indicated in Example 1. The stained enamel blocks were embedded in SILLY PUTTY® (Crayola LLC, Easton, Pa.) filled well, a 24-well plate to protect the dentin backside from solution exposure. A solution of 20 μM of each enzyme in 10 mM phosphate buffer, pH 7.2 was prepared and 500 μL of the enzyme solution was added to each enamel blocks and incubated for 10 min at 37° C. The enamel block was then rinsed three times with an additional 500 μL of buffer each time. The enamel blocks were transferred and embedded in a fresh putty well for the whitening process. A solution (200 μL) containing 100 mM phosphate buffer, 100 mM triacetin, 100 mM H2O2, pH 7.2 was added to the enamel and incubated for 10 min at 37° C. The enamel block was removed from the well using forceps, then rinsed and stored in a 1.5 mL of water filled well for color measurements. The 2-step process was repeated 5 times (50 min total). Each sample data point represents 2 repeats of independent enamel blocks.

[3] = Peracetic acid generated in solution by CE-7 perhydrolase fusions (Example 8); assay type: biochemical; details: 0.5 μM enzyme, 100 mM triacetin, 100 mM H2O2, pH 7.2, 10 min, 37° C.; no enzyme 378.9
Description: The detection of peracetic acid followed the method described in Pinkernell et. al. (Analyst, 1997, 122, 567) using colorimetric detection of 2,2′-azino-bis(3-ethylbenzothiazoline(-6-sulfonate (ABTS) oxidation by peracetic acid. Following the formation of peracetic acid with the addition of triacetin and hydrogen peroxide, 90 μL of solution was added to 10 μL of 0.1 M H3PO4 in a well plate. 50 μL of 1 M acetic acid, 50 μL of 0.5 g/L ABTS and 50 μL of 0.002 g/L of KI was added. The solution was allowed to develop for 5 min. The absorbance of the solution was measured at 405 nm using a microplate reader. The peracetic acid concentration was calculated based on a standard curve developed simultaneously using peracetic acid reagent solution.
Perhydrolase enzymes listed in Table 6 were assessed for solution activities. The method to measure the perhydrolase in solution activity was described in Example 7 by making a 500 μL solution containing 0.5 μM of enzyme, 100 mM triacetin, 100 mM H2O2 in 100 mM phosphate buffer, pH 7.2. The solution was mixed and incubated for 10 min at 37° C. A 10 μL aliquot was removed and diluted for detection as described in Example 7. Peracetic acid concentration was determined using a standard curve generated with a stock solution of peracetic acid (Aldrich). The experiment was also performed with no enzyme present as a control.

[4] = Peracetic acid generation from hydroxyapatite bound CE-7 perhydrolase fusions (Example 8); assay type: biochemical; details: hydroxyapatite particles exposed to 10 μM enzyme, washed; 100 mM triacetin, 100 mM H2O2, 30 min, 37° C.; no enzyme 30-118.8
In short: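 Enzyme (10 μM) bound to washed hydroxyapatite particles in 10 mM phosphate pH 7.2 for 30 min, washed three times, then given 100 mM triacetin plus 100 mM H2O2 in 100 mM phosphate pH 7.2, 30 min, 37 °C. Peracetic acid read by ABTS oxidation at 405 nm against standard curve; no-enzyme control.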

[5] = Peracetic acid generated in solution by C277S CXH fusions (Example 9); details: 0.5 μM enzyme, sarkosyl buffer, 100 mM triacetin, 100 mM H2O2, pH 7.2, 10 min, 37° C.
[6] = Peracetic acid from C277S CXH fusions exposed to hydroxyapatite discs (Example 9); details: no enzyme control subtracted

Molecule	retention on hydroxyapatite and enamel (in words) ([1]; 2-step process)	Whiteness Index 0 min ([1]; two-step: 10 μM enzyme 60 min, rinsed, then 40 mM triacetin, 100 mM H2O2, pH 7.2, before step 2)	ΔWI ([1]; two-step, 0 to 60 min)	Whiteness Index 5 min ([1]; two-step, 5 min in triacetin/H2O2)	Whiteness Index 15 min ([1]; two-step, 15 min in triacetin/H2O2)	Whiteness Index 30 min ([1]; two-step, 30 min in triacetin/H2O2)	Whiteness Index 45 min ([1]; two-step, 45 min in triacetin/H2O2)	Whiteness Index 60 min ([1]; two-step, 60 min in triacetin/H2O2)	Whiteness Index Rd1 [2]	Whiteness Index Rd2 [2]	Whiteness Index Rd3 [2]	Whiteness Index Rd4 [2]	Whiteness Index Rd5 [2]	ΔWI [2]	Whiteness Index Before [2]	PAA (ppm) [3] [ppm]	Peracetic acid (ppm) [4] [ppm]	Peracetic acid (ppm) In Solution [5] [ppm]	Peracetic acid (ppm) Exposed to Hydroxyapatite, Disc ([6]; disc-bound enzyme, 100 mM triacetin, 100 mM H2O2, 30 min, 37° C.) [ppm]	Peracetic acid (ppm) Exposed to Hydroxyapatite, Supernatant ([6]; unbound enzyme in supernatant after 10 μM enzyme on disc) [ppm]
B1	poor retention on hydroxyapatite and enamel	−152.7	56.6	−126.2	−138.9	−144.8	−107.3	−96.1	−129.5	−129.5	−129.2	−125.1	−122.1	17.9	−140.0	–	–	–	–	–
B2	–	–	–	–	–	–	–	–	−106.7	−96.0	−88.7	−85.7	−76.6	44.2	−120.8	4877.2	4453.7	5471	2017	4864
